This is an account of results in article PMC8211282, “The bioactivity of soluble Fas ligand is modulated by key amino acids of its stalk region” (PLoS ONE, 2021).

Experiment [1] addresses T1, wild type soluble Fas ligand (WT-sFasL), long form, amino acids 103 to 281 (human, UniProt P48023 103-281).
T1 construct: human Fas ligand (FasL, CD178), soluble long form, amino acids 103 to 281 of the 281 amino acid protein; cloned in pSecTag/FRT/V5-His-TOPO with stop codons, so the V5-His tag is not expressed ('native form'); Secreted from the pSecTag vector; the oligomeric state was not measured here; also called wild type sFasL; long form of sFasL
T1 sequence (looked up): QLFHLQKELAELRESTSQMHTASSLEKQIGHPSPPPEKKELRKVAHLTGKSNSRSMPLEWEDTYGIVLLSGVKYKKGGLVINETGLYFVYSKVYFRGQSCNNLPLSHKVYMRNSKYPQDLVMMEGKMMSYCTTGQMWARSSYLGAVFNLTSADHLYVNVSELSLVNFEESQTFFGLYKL
The experiment can be described thus: ELISA; direct binding: wells coated with recombinant human soluble Fas, 5 ug/ml; serial 3-fold dilutions of WT or mut-sFasL, 2 hours; bound sFasL detected with a polyclonal anti-human FasL antibody. The conditions noted are these: both partners purified. On the technique in general: An ELISA detects its analyte on a solid surface through an enzyme-linked reagent.

In experiment [2] the target is T2, biotinylated wild type soluble Fas ligand (biotinylated WT-sFasL) (human, UniProt P48023 103-281, biotin (EZ-Link Sulfo-NHS-LC-Biotin), sites not stated).
T2 construct: human Fas ligand (FasL, CD178), soluble long form, amino acids 103 to 281; the same protein as m1, biotinylated after purification; Same construct as m1, chemically biotinylated
T2 sequence (looked up): T1 sequence (looked up)
The experiment can be described thus: ELISA; competition: wells coated with recombinant human soluble Fas (250 ng/ml); biotinylated WT sFasL (70 ng/ml) mixed with serial 3-fold dilutions of WT or 8-site mutated sFasL, 2 hours; biotin detected with HRP-streptavidin. The conditions noted are these: both partners purified.

B1: recombinant human soluble Fas receptor (receptor, UniProt P25445 26-173, looked up)
chain: QVTDINSKGLELRKTVTTVETQNLEGLHHDGQFCHKPCPPGERKARDCTVNGDEPDCVPCQEGKEYTDKAHFSSKCRRCRLCDEGHGLEVEINCTRTQNTKCRCKPNFFCNSTVCEHCDPCTKCEHGIIKECTLTSNTKCKEEGSRSN
notes: human Fas (CD95), recombinant soluble receptor from PeproTech; No catalogue number is printed; also called recombinant human Fas; CD95; source: bought: PeproTech
Take B1: the binding result in experiment [1] and in experiment [2] was “binds” in each case.
